Laboratory results reported in publication doi:10.1101/2020.03.14.988758 (bioRxiv, 2020).

B1: Fab MuSK1A (mature) (Fab, V domains shown)
VH: QVQLVQSGAEVKKPGASVKVSCKTSGYTFNNYDINWVRQAAGQGLEWMGWMNPYSGNTGYAQKFQGRVTMTRNISITTVYMELSSLRSEDTAVYYCAREVRGDTGYGGGSDYWGQGTLVTVSS
VL: SYELTQPPSVSLSPGQTATITCSGDKLDDNYVCWYQQKPGQSPVLVIYQDTMRPSGIPERFSGSNSGNIATLTISGTQAVDEADYYCQAWDGSTVVFGGGTRLTVL
B2: Fab MuSK1B (mature) (Fab, V domains shown)
VH: EVQLVEWGAGLLKPSETLSLTCAVYGGSFSGDYWWTWIRQPPGKGLEWIGEIDHTGNTNYNPSLKSRLTLSVDMSKNHFSLKLTSVTAADTALYFCARQEGLGYYDSWGQGTLVTVSS
VL: SYELTQSPSVSVSPGQTANITCSGDKLGDRYASWYQQKPAQSPVLVIYQDDRRPSGIPERFSGSNSGNTATLTISGTQGMDEADYYCQAWDGTTVFGGGTKLTVL

Target: ectodomain construct of MuSK (ectoMuSK) (aa1-472) (Homo sapiens (assumed), UniProt O15146, biotin on the Avitag (site-specific, BirA))
Assay: BLI

ectodomain construct of MuSK (ectoMuSK) (aa1-472), sequence (O15146 24-472): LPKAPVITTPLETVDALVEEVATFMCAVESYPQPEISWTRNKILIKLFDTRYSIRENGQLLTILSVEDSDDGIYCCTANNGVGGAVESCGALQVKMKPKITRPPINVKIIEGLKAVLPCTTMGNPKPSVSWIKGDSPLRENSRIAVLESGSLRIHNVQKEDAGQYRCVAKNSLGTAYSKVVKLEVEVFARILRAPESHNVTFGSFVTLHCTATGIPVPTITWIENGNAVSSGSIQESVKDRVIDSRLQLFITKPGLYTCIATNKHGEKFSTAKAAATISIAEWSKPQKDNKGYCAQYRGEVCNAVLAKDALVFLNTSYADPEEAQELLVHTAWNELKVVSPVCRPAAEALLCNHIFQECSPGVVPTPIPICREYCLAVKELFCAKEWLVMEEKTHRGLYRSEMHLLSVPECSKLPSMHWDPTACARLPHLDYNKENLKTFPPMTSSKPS

Binder | Kd
B1 | 0.41 nM
B2 | 0.44 nM
